# B1: Gli1 target oligo (dsDNA)
# DNA 1: AGCCCGGACCACCCACGAGAA
# DNA 2: TTCTCGTGGGTGGTCCGGGCT
# Experiments:
# aPKC (HIS:aPKC) = target: T1, aPKC (HIS:aPKC) (UniProt P41743 P41743:1-596); assay: EMSA; aPKC alone did not bind; settings: tags: HIS, Abcam
# T1 sequence: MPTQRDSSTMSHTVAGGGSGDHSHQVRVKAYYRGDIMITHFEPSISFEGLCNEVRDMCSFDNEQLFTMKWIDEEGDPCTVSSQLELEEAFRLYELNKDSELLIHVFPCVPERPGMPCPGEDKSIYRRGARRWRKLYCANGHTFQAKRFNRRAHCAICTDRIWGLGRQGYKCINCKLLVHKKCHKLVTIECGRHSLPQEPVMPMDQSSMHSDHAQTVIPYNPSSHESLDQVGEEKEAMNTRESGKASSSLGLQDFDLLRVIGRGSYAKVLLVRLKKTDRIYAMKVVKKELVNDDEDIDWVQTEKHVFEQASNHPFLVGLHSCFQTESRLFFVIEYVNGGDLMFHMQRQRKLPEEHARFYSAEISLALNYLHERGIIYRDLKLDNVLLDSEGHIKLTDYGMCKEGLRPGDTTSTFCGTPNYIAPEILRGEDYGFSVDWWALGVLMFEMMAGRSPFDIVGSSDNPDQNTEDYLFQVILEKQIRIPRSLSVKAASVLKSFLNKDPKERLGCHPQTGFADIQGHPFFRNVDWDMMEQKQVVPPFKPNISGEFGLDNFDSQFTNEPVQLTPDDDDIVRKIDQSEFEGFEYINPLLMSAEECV
# Protocol: (§1) Electrophoretic mobility shift assay performed by incubation of 50 fmol double-stranded radiolabeled Gli1 oligos (5′ […] 3′ (SEQ IF NO:5)) in binding buffer ([…] pH 7.5, mM KCl, 2.5 mM MgCl2, 1 mM DTT, 10% glycerol, 25 uM poly(dO-dC), 5 uM ZnSO₄) with IVT Gli1:V5/HIS lysate for 10 min at room temperature. 2 pmol unlabeled Gli1 oligos or Gli1 mutant oligos (5′ […] 3′ (SEQ ID NO:6)) used as competition. Endogenous aPKC inhibited in reticulocyte lysate with PSI during translation reaction and rescue performed by adding recombinant HIS:aPKC for 15 min before addition of radiolabeled Gli1 oligos. Samples were resolved on 6% acrylamide gel and exposed to a phosphor screen (Molecular Dynamics) and imaged with GE Typhoon 9410.
# (§2) We asked whether phosphorylated Gli1 affects the mobility of radiolabeled Gli1 target DNA in an electrophoretic mobility assay.
# Gli1 = Gli1 (Homo sapiens, UniProt P08151 P08151:1-1106); assay: EMSA; Zn, Mg, poly(dI-dC)-type competitor, room temperature; binding reduced by PSI during translation and rescued by recombinant aPKC; over-phosphorylation disrupts; settings: tags: V5/HIS, rabbit reticulocyte lysate (Promega)
# Gli1, sequence (P08151 whole entry, one chain of several): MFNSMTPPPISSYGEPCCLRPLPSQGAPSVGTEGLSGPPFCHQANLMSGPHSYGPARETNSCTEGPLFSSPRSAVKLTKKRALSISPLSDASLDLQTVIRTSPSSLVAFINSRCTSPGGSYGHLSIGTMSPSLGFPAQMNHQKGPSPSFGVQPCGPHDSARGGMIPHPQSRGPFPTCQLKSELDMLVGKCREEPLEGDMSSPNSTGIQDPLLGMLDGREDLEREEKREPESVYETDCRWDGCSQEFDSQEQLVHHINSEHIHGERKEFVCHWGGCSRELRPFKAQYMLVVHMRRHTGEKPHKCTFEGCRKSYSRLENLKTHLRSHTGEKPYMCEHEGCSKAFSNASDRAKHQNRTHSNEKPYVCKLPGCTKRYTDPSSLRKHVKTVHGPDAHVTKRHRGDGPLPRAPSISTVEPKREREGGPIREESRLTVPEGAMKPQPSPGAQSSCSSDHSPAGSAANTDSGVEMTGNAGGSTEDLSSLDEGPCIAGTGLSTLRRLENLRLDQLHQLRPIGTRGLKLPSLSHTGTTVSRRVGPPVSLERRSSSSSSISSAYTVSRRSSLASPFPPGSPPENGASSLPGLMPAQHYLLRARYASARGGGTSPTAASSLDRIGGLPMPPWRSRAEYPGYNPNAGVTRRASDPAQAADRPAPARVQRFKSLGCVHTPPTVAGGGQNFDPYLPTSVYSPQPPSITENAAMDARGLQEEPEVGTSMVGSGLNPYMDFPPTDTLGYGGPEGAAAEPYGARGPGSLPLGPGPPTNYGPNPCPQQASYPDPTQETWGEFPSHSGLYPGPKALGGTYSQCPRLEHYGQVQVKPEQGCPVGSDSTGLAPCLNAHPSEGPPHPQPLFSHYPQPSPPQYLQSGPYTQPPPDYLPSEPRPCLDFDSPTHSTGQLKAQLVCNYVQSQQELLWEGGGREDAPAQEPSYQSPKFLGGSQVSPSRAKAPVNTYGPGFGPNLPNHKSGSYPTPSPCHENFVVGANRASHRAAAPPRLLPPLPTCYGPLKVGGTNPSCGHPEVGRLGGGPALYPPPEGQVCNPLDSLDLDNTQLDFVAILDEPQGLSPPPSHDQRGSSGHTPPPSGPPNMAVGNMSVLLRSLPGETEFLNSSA
# Protocol: as §1, §2
binder,measurement,setting,value
B1,binding result,aPKC (HIS:aPKC),no binding
same,binding result,Gli1,binds

# — patent US20120283194, “Inhibitors of Atypical Protein Kinase C and Their Use in Treating Hedgehog Pathway-Dependent Cancers” (published 2012)
